This note sets out measurements from PMC9388692, “Nuclear import of PTPN18 inhibits breast cancer metastasis mediated by MVP and importin β2” (Cell Death & Disease, 2022).

The target of one experiment is T1, His-tagged importin β2 (UniProt Q92973 1-898).
T1 construct: source: purified proteins
T1 sequence (looked up): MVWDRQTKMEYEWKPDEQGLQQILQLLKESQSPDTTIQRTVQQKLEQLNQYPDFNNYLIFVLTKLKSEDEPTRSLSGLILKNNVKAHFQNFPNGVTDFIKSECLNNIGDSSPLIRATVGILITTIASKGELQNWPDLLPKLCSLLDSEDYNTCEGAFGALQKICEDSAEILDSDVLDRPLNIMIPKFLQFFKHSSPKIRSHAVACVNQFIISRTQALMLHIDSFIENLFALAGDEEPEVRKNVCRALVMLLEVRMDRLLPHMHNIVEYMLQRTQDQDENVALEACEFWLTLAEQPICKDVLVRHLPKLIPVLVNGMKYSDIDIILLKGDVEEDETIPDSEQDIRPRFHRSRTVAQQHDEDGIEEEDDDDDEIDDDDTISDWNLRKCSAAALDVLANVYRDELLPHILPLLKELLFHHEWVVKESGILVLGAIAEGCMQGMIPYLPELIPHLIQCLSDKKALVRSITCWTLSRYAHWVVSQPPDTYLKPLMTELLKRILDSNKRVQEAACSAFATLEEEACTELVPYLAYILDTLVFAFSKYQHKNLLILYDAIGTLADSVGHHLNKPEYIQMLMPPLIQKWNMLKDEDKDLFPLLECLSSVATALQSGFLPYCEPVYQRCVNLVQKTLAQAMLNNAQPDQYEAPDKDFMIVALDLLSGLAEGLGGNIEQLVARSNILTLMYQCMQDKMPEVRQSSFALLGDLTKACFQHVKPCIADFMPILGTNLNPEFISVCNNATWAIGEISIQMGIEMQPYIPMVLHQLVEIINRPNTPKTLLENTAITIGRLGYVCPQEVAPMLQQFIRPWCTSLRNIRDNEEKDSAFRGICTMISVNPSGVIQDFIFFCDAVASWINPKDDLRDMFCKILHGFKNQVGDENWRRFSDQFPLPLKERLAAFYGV
Nature of the experiment: pull-down; GST pull-down of GST-tagged PTPN18 and its NLS mutants with His-tagged importin β2; purified proteins, in vitro. To be noted: both partners purified.

A further experiment addresses T2, His-tagged MVP (UniProt Q14764 1-893).
T2 construct: MVP, His-tagged, for GST pull-down
Nature of the experiment: pull-down; GST pull-down with GST-tagged PTPN18 and His-tagged MVP; called a direct interaction, in vitro. The note with it: both partners purified.

T2 sequence (Q14764 whole entry): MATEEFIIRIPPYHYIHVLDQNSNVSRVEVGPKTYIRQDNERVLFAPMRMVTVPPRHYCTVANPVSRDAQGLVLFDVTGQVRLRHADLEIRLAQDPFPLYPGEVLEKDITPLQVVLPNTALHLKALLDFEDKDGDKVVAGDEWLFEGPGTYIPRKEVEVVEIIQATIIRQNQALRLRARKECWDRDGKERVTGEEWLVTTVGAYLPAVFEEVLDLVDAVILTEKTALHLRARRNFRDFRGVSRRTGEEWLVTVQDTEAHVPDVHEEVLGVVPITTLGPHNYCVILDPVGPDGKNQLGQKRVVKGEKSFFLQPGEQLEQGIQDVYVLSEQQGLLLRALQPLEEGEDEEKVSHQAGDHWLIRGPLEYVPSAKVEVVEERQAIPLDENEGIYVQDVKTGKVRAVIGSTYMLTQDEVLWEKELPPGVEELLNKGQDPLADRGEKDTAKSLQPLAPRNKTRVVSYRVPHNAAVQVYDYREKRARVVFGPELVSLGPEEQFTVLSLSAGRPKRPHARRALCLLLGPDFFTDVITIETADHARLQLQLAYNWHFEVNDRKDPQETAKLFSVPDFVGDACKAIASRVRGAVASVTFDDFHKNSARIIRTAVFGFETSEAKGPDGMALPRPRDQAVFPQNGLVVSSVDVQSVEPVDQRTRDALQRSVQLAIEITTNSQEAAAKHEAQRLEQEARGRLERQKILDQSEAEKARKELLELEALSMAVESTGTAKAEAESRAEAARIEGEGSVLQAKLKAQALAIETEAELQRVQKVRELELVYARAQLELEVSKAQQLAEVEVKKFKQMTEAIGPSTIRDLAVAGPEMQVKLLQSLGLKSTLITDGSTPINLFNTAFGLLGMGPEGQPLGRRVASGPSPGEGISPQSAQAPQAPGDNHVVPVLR

B1: GST-tagged PTPN18 (natural protein, UniProt Q99952 1-460, looked up)
chain: MSRSLDSARSFLERLEARGGREGAVLAGEFSDIQACSAAWKADGVCSTVAGSRPENVRKNRYKDVLPYDQTRVILSLLQEEGHSDYINGNFIRGVDGSLAYIATQGPLPHTLLDFWRLVWEFGVKVILMACREIENGRKRCERYWAQEQEPLQTGLFCITLIKEKWLNEDIMLRTLKVTFQKESRSVYQLQYMSWPDRGVPSSPDHMLAMVEEARRLQGSGPEPLCVHCSAGCGRTGVLCTVDYVRQLLLTQMIPPDFSLFDVVLKMRKQRPAAVQTEEQYRFLYHTVAQMFCSTLQNASPHYQNIKENCAPLYDDALFLRTPQALLAIPRPPGGVLRSISVPGSPGHAMADTYAVVQKRGAPAGAGSGTQTGTGTGTGARSAEEAPLYSKVTPRAQRPGAHAEDARGTLPGRVPADQSPAGSGAYEDVAGGAQTGGLGFNLRIGRPKGPRDPPAEWTRV
notes: PTPN18 wild type, GST-tagged, for GST pull-down; also called PTPN18 WT; source: purified proteins
Consider B1, for which the binding result with His-tagged importin β2 and with His-tagged MVP was “binds” throughout.
